Measurements reported in paper doi:10.1101/2023.04.25.538313v1.

Substrate: O=c1ccn([C@@H]2O[C@H](CO[P@@](=O)(O)O[P@@](=O)(O)O[C@H]3O[C@H](CO)[C@@H](O)[C@H](O)[C@H]3O)[C@@H](O)[C@H]2O)c(=O)[nH]1
Assay: purified protein
Details: His-tagged protein in proteoliposomes

B1: CSLD3 (Arabidopsis thaliana) (protein)
chain: MASNNHFMNSRSNLSTNSDAAEAERHQQPVSNSVTFARRTPSGRYVNYSRDDLDSELGSVDLTGYSVHIPPTPDNQPMDPSISQKVEEQYVSNSLFTGGFNSVTRAHLMEKVIDTETSHPQMAGAKGSSCAVPGCDVKVMSDERGQDLLPCECDFKICRDCFMDAVKTGGMCPGCKEPYRNTDLADFADNNKQQRPMLPPPAGGSKMDRRLSLMKSTKSGLMRSQTGDFDHNRWLFETSGTYGFGNAFWTKDGNFGSDKDGNGHGMGPQDLMSRPWRPLTRKLQIPAAVISPYRLLILIRIVVLALFLMWRIKHKNPDAIWLWGMSVVCELWFALSWLLDQLPKLCPINRATDLNVLKEKFETPTPSNPTGKSDLPGLDMFVSTADPEKEPPLVTSNTILSILAADYPVEKLACYVSDDGGALLTFEAMAEAASFANMWVPFCRKHNIEPRNPDSYFSLKRDPYKNKVKADFVKDRRRVKREYDEFKVRINSLPDSIRRRSDAYHAREEIKAMKLQRQNRDEEIVEPVKIPKATWMADGTHWPGTWINSGPDHSRSDHAGIIQVMLKPPSDEPLHGVSEGFLDLTDVDIRLPLLVYVSREKRPGYDHNKKAGAMNALVRASAIMSNGPFILNLDCDHYIYNSQALREGMCFMMDRGGDRLCYVQFPQRFEGIDPSDRYANHNTVFFDVNMRALDGLMGPVYVGTGCLFRRIALYGFDPPRAKEHHPGFCSCCFSRKKKKSRVPEENRSLRMGGDSDDDEEMNLSLVPKKFGNSTFLIDSIPVAEFQGRPLADHPAVQNGRPPGALTIPRELLDASTVAEAIAVISCWYEDKTEWGSRIGWIYGSVTEDVVTGYRMHNRGWKSVYCVTKRDAFRGTAPINLTDRLHQVLRWATGSVEIFFSRNNAFFASPRMKILQRIAYLNVGIYPFTSFFLIVYCFLPALSLFSGQFIVQTLNVTFLVYLLIISITLCLLALLEIKWSGISLEEWWRNEQFWLIGGTSAHLAAVIQGLLKVVAGIEISFTLTSKSGGEDVDDEFADLYIVKWTSLMIPPITIMMVNLIAIAVGFSRTIYSVIPQWSKLIGGVFFSFWVLAHLYPFAKGLMGRRGRTPTIVYVWSGLVAITISLLWVAINPPAGSTQIGGSFTFP
  Km: 62 µM
